Reference: the supplement of paper PMC6757056
± gives the standard deviation of the averaged measurements.

B1: library; a variant is named by its letters at N, in order (parent)
chain: GCUGUCACCGGUGCUUGGUACGUUAUAUUCAGCCGGUCUGAUGAGUCUNNNNNNAGACGAAACAGC

Columns and labels:
(6R,S)-folinic acid [1] = variants of: B1; assay: normalized RNA/DNA level without ligand (relative to sTRSVctl = 100) (log10 (% of sTRSVctl)); HEK293T overexpressing SLC46A1; higher = less ribozyme self-cleavage, higher mRNA level; details: without (6R,S)-folinic acid; ligand present: no
Procedure, shortened: (§1)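 Only sequences with at least 100 DNA reads were analyzed, from HEK293T cells transfected with 4 µg per 6-well well of ribozyme switch library plasmids 72 h before RNA extraction with EDTA. Any ligand was added 1 h before transfection. RNA level was defined as RNA over DNA reads, normalized to a spiked-in non-cleaving sequence or to the top sequences, then scaled and log-transformed. The top set was 25 sequences, and the scaling was ×100 followed by log10.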

(6R,S)-folinic acid [2] = variants of: B1; assay: normalized RNA/DNA level with ligand (relative to sTRSVctl = 100) (log10 (% of sTRSVctl)); HEK293T overexpressing SLC46A1; ligand concentration (+) RNA-Seq: 6 mM; higher = less ribozyme self-cleavage, higher mRNA level; details: with (6R,S)-folinic acid; ligand present: yes
Procedure, shortened: as §1

Variant	normalized RNA/DNA level without ligand (log10) ((6R,S)-folinic acid [1])	normalized RNA/DNA level with ligand (log10) ((6R,S)-folinic acid [2])
CGGACG	2.017 ± 0.012	2.02 ± 0.0049
CGGACC	2.072 ± 0.0055	2.0545 ± 0.0011
CGGACA	2.037 ± 0.0086	2.02 ± 0.03
CGGACU	2.043 ± 0.0042	2.01 ± 0.023
GGGAUU	2.0271 ± 0.0004	2.04 ± 0.047
GGGAUA	2 ± 0.028	2.03 ± 0.022
GGGAUC	2.037 ± 0.0086	2.04 ± 0.027
UGGAUA	1.93 ± 0.022	1.99 ± 0.031
UGGAUC	2.039 ± 0.01	2.01 ± 0.032
UGCUUA	2.003 ± 0.0057	2.03 ± 0.026
UGCUUU	2.016 ± 0.0073	2.032 ± 0.0036
UGCUUC	2.04 ± 0.027	2.04 ± 0.043
GGGACG	2.039 ± 0.01	2.06 ± 0.051
GGGACC	2.049 ± 0.0006	2.04 ± 0.024
AGCUUU	2.014 ± 0.0092	2.016 ± 0.018
AGCUUC	2.0594 ± 0.00028	2.045 ± 0.011
AGCUUA	1.996 ± 0.0022	2.01 ± 0.062
UGGACU	2.006 ± 0.0056	2.01 ± 0.023
CGCUCU	2.1 ± 0.033	2.06 ± 0.033
CGCUCC	2.082 ± 0.015	2.057 ± 0.017
CGCUCG	2.047 ± 0.0074	2.018 ± 0.015
UGGCGG	1.8196 ± 0.0011	1.99 ± 0.056
UGGCGC	2.08 ± 0.027	2.05 ± 0.055
UGGCGA	1.98 ± 0.0056	2.067 ± 0.0097

Variant	normalized RNA/DNA level without ligand (log10) ((6R,S)-folinic acid [1])	normalized RNA/DNA level with ligand (log10) ((6R,S)-folinic acid [2])
CGGCAA	2.086 ± 0.0085	2.05 ± 0.023
CGGCAC	2.102 ± 0.011	2.052 ± 0.0022
CGGCAG	1.997 ± 0.0087	2.01 ± 0.052
UGCUGU	2.015 ± 0.0082	1.995 ± 0.0073
UGCUGC	2.038 ± 0.018	2.01 ± 0.049
AGGCGC	2.057 ± 0.015	2.03 ± 0.026
AGGCGA	2.0336 ± 0.00079	2.06 ± 0.023
AGGCGG	2.0398 ± 0.0017	2.044 ± 0.01
GGGCAG	2.03 ± 0.0034	2.05 ± 0.057
GGGCAA	2.046 ± 0.013	2.05 ± 0.027
GGGCAC	2.003 ± 0.0062	2.02 ± 0.041
AGCUCC	2.095 ± 0.0069	2.04 ± 0.042
AGCUCG	1.99 ± 0.024	1.998 ± 0.0042
AGCUCU	2.02 ± 0.039	2.055 ± 0.0097
AGCUCA	2.07 ± 0.026	2.01 ± 0.04
UGGCAU	1.965 ± 0.014	2.01 ± 0.021
UGGCAC	2.041 ± 0.016	2.04 ± 0.042
UGGCAA	1.97 ± 0.024	2.01 ± 0.033
CGGAAG	1.94 ± 0.021	1.98 ± 0.028
CGGAAA	1.9343 ± 0.0017	1.98 ± 0.045
CGGAAC	1.984 ± 0.0056	2 ± 0.034
AGGAAA	1.942 ± 0.0081	1.99 ± 0.04
AGGAAG	1.89 ± 0.0078	2.01 ± 0.043
UGCUCA	1.982 ± 0.006	1.988 ± 0.013

Variant	normalized RNA/DNA level without ligand (log10) ((6R,S)-folinic acid [1])	normalized RNA/DNA level with ligand (log10) ((6R,S)-folinic acid [2])
UGCUCC	2.062 ± 0.0087	2.03 ± 0.081
CGCUGA	2.075 ± 0.003	2.05 ± 0.03
CGCUGU	2.03 ± 0.038	2 ± 0.02
CGCUGG	1.974 ± 0.0042	2.016 ± 0.0049
UGGAGC	1.996 ± 0.0034	2.06 ± 0.036
AGGCAG	1.965 ± 0.0036	1.99 ± 0.053
GGCUCU	2.087 ± 0.0098	2.05 ± 0.038
GGCUCA	2.073 ± 0.011	2.01 ± 0.033
GGCUCC	2.0314 ± 0.0019	2.02 ± 0.046
GGCUCG	2.067 ± 0.014	2.03 ± 0.042
CGGAGA	1.997 ± 0.017	2.03 ± 0.042
CGGAGU	2.019 ± 0.017	2.025 ± 0.012
CGGAGC	1.994 ± 0.0049	2 ± 0.032
CGGAGG	1.83 ± 0.02	1.994 ± 0.01
AGGACG	1.962 ± 0.0089	2.032 ± 0.014
AGGACU	1.993 ± 0.0073	2.009 ± 0.017
AGGACA	1.989 ± 0.0041	2.02 ± 0.038
AGGACC	2.029 ± 0.0033	1.99 ± 0.043
AGGAUC	2.059 ± 0.012	2.014 ± 0.013
AGGAUU	2.024 ± 0.017	2.05 ± 0.028
AGGAUG	1.92 ± 0.031	2.037 ± 0.019
GGGCCU	2.098 ± 0.0088	2.08 ± 0.036
GGGCCC	2.102 ± 0.0043	2.08 ± 0.039
GGGCCG	2.091 ± 0.018	2.08 ± 0.047

Variant	normalized RNA/DNA level without ligand (log10) ((6R,S)-folinic acid [1])	normalized RNA/DNA level with ligand (log10) ((6R,S)-folinic acid [2])
GGGCCA	2.126 ± 0.019	2.09 ± 0.041
AGGCCU	2.07 ± 0.031	2.06 ± 0.0088
AGGCCA	2.0454 ± 0.0016	2.04 ± 0.04
AGGCCG	2.039 ± 0.017	2.02 ± 0.039
AGGCCC	2.068 ± 0.0036	2.03 ± 0.056
AGGAGC	1.99 ± 0.016	2.01 ± 0.04
AGGAGU	1.934 ± 0.0037	2.033 ± 0.014
CGGCCC	2.09 ± 0.035	2.04 ± 0.032
CGGCCA	2.111 ± 0.021	2.058 ± 0.0046
CGGCCU	2.0767 ± 0.00028	2.06 ± 0.068
CGGCCG	2.038 ± 0.015	2.03 ± 0.038
GGCUGG	2.064 ± 0.0042	2.05 ± 0.046
GGCUGU	2.067 ± 0.016	2.066 ± 0.019
GGCUGC	2.07 ± 0.0054	2.05 ± 0.021
GGCUGA	2.094 ± 0.014	2.08 ± 0.052
GGGAAU	2.008 ± 0.0024	2.019 ± 0.02
GGGAAA	1.99 ± 0.0091	2.02 ± 0.036
GGGAAC	1.997 ± 0.015	2.02 ± 0.032
GGCUUU	2.079 ± 0.0033	2.041 ± 0.013
GGCUUC	2.085 ± 0.0026	2.08 ± 0.067
GGCUUA	2.0768 ± 0.0012	2.03 ± 0.03
CGGAUC	2.085 ± 0.011	2.034 ± 0.003
CGGAUU	2.031 ± 0.015	2.02 ± 0.045
GGGCGU	2.103 ± 0.0047	2.08 ± 0.05

Variant	normalized RNA/DNA level without ligand (log10) ((6R,S)-folinic acid [1])	normalized RNA/DNA level with ligand (log10) ((6R,S)-folinic acid [2])
GGGCGC	2.011 ± 0.016	2.04 ± 0.048
GGGCGA	2.089 ± 0.0043	2.1 ± 0.018
UGGAAU	1.869 ± 0.0092	2 ± 0.024
UGGAAC	1.921 ± 0.0075	2 ± 0.035
UGGAAA	1.919 ± 0.0043	1.98 ± 0.028
GGGAGA	2.021 ± 0.0092	2.05 ± 0.043
UGGCCG	2.01 ± 0.036	2.03 ± 0.046
UGGCCU	2.043 ± 0.014	2.03 ± 0.024
UGGCCC	2.059 ± 0.0063	2.06 ± 0.068
AGCUGG	2.05 ± 0.0052	2.06 ± 0.031
AGCUGC	2.038 ± 0.014	2.05 ± 0.022
AGCUGU	2.039 ± 0.012	2.032 ± 0.016
AGCUGA	2.0496 ± 0.0016	2.028 ± 0.014
CGCUUG	2.066 ± 0.018	2.041 ± 0.015
CGCUUA	2.002 ± 0.011	2.014 ± 0.019
CGCUUC	2.1105 ± 0.0021	2.09 ± 0.066
CGGCGU	2.05 ± 0.027	2.02 ± 0.046
CGGCGA	2.103 ± 0.016	2.09 ± 0.026
CGGCGC	2.0778 ± 0.0006	2.05 ± 0.029
CGGCGG	1.968 ± 0.0051	2.04 ± 0.041
